Reference: US20070243582A1

Molecular target: human IgG (Sigma) (human)
Assay: ELISA: SPA′ coated at 5 µg/mL, human IgG 25 µg/mL, detection with HRP-labeled protein L, absorbance at 405 nm

## SPA′ (part of protein A of Staphylococcus aureus Cowan I strain (JCM2179) except for the signal sequence (S domain) and the cell wall-binding domain (X domain)), produced by Brevibacillus choshinensis HPD31-OK having Spa′-pNK3260 (from UniProt P38507 37-327)
  human IgG-binding activity per unit mass, relative to protein A manufactured by Repligen: 97%
